From patent US20210395344A1 (TWIST BIOSCIENCE, published 2021) come the findings set out here.

In test [1] the target is T1, Acro COVID S1 (S1N-C82E8) (SARS-CoV-2, UniProt P0DTC2 16-685).
T1 construct: domain: S1
Put plainly: phage ELISA. A general note: ELISA stands for enzyme-linked immunosorbent assay.

For test [2], the target named is T1, Acro COVID S1 (S1N-C82E8). Put plainly: phage ELISA. The source holds these as a separate data set.

Substitutions are numbered along the chain they refer to. Where two headings read alike, the source gives them in different places.

B1: 1-17 (antibody, V domains shown)
VH: EVQLLESGGGLVQPGGSLRLSCAASGFTFSSYAMYWVRQAPGKGLEWVSAISGSAGSTYYADSVKGRFTISRDNSKNTLYLQMNSLRAEDTAVYYCARDTNDFWSGYSIFDPWGQGTLVTVSS
VL: QSALTQPASVSGSPGQSITISCTGTSSDIGSYNLVSWYQQHPGKAPKLMIYEGTKRPSGVSNRFSGSKSGNTASLTISGLQAEDEADYYCCSYAGSRTYVFGGGTKLTVL
notes: also called variant 1-17
Take B1: the “ELISA fold over background” value in test [1] and in test [2] was 25.1 fold over background throughout.

B2: 1-42 (antibody, V domains shown)
VH: EVQLLESGGGLVQPGGSLRLSCAASGVTFSSYAMSWVRQAPGKGLEWVSAITGSGGSTYYADSVKGRFTISRDNSKNTLYLQMNSLRAEDTAVYYCAKHGSGTIFGVVIAKYYFDYWGQGTLVTVSS
VL: B1 VL with I29V, S31R, T54G, G95S, R97S, Y99L
notes: also called variant 1-42
Consider B2, for which the “ELISA fold over background” value in test [1] and in test [2] was 22.7 fold over background in each case.
